# T1: CCR10 (Homo sapiens, UniProt Q9NPB9)
# T1 construct: Full length CCR10 expression constructs were made in pIRESpuro expression vector; expressed in transfected cells; HEK293-CCR10)
# T1 sequence (Q9NPB9 1-350): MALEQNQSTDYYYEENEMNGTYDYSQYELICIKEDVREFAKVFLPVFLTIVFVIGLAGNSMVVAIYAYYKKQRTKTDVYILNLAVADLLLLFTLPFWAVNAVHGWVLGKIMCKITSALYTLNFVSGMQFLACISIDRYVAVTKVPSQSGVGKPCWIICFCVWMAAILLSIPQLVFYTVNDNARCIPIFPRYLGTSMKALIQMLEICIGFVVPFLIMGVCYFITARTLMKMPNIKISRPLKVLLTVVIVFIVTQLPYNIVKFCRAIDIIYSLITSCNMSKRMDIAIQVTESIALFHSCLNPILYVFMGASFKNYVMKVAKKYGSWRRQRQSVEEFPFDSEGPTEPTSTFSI
# T2: CCR7 (Homo sapiens, UniProt P32248)
# T2 construct: host or cells: mouse myeloma NSO
# T2 sequence (P32248 25-378): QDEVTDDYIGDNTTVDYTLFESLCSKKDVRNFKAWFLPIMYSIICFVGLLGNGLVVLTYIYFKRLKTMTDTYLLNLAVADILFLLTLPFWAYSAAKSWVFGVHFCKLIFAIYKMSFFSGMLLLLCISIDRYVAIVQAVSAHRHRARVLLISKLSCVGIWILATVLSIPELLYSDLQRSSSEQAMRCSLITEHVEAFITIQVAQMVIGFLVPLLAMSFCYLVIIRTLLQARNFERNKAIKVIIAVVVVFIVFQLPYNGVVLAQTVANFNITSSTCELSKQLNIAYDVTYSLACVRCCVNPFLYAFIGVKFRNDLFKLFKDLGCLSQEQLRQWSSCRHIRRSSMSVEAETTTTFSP
# Tests used:
# CCR10 [1] = target: T1, CCR10; assay: Homologous competition binding of radiolabeled chemokine on HEK293-CCR10 cells
# Source text: Human, viral and murine recombinant chemokines were obtained from R&D Systems (Minneapolis, Minn.; http://cytokine.rndsystems.com/cyt_cat/cyt_cat.html). ^125I-labeled ELC and TECK were obtained from Amersham. Full length CCR10 expression constructs were made in pIRESpuro expression vector (Clontech, Palo Alto, Calif.) with a FLAG epitope tag and prolactin signal sequence, and used to generated stable transfectants in HEK293 cells. Transient and stable transfections for CCR10 and stalkokines were done using Superfect reagent (Qiagen, Valencia, Calif.) following manufacturer's protocol. Stably-transfected cells were generated by selection in 2 ug/mL puromycin for 7 days, and expression was confirmed by FACS analysis of the FLAG epitope using anti-FLAG M1 (Sigma, St. Louis, Mo.) and 2′ anti-mouse PE conjugate (Coulter Immunotech, Miami, Fla.).
# (§1) Furthermore ELC-SK mediated adhesion was abolished in the presence of soluble native ELC as a competitor (FIG. 3A, top row). […] Moreover, radiolabeled ELC was used in a traditional homologous competition assay in the presence of increasing concentrations of unlabeled ELC. […] Taken together, the stalkokine-based adhesion and radiolabeled ligand binding/homologous competition assays indicate that CCR10 is a new chemokine receptor that bound a novel compliment of chemokines.
# CCR10 [2] = target: T1, CCR10; assay: Spectrum of ligands that bind to CCR10; assay type: binding
# Source text: as §1
# CCR7 = target: T2, CCR7; assay: Binding of CCR7-NSO cells to immobilized stalkokines
# Protocol: (§2) In one set of experiments, five 8 well chamber slides (Lab-Tek II, Nalge Nunc International, Rochester, N.Y.), 250 ul of 10 ug/ml anti-his antibody (R&D Systems, Minneapolis, Minn.) in PBS was added to each well and incubated at room temperature overnight (typically 16 hours). Following, the liquid in each well was aspirated and washed once for approximately 5 minutes with 500 ul of PBS. The wells were then “blocked” (blocked for any additional protein binding sites) with the addition of 250 ul of blocking solution (2% fetal bovine serum, 0.5% BSA in PBS) and incubation for 1 hour at room temp (e.g., 20° C.). The liquid in each well was aspirated and 250 ul of supernatant containing the chemokine-stalk-immobilization domain fusion proteins (SDF1a-FRAC, finetaxin-FRAC, CCL27-FRAC, 1309-FRAC, MIP3a-FRAC, ELC-FRAC, SLC-FRAC, MDC-FRAC, TARC-FRAC, or BRAK-FRAC) or the control supernatant was added to two wells. Each slide contained two wells with control supernatant (from mock-transfected cells) and two wells with the positive control SDF1a (which binds the ubiquitous chemokine receptor CXCR4). The four other wells were for experimental samples. The supernatants were incubated for one hour at room temperature (typically 20° C.), then incubated for an additional hour at 37° C. […] The slide was then ready for addition of cells for assay. […]
# CCR8 = target: T3, CCR8 (Homo sapiens, UniProt P51685); assay: Binding of CCR8-NSO cells to immobilized stalkokines
# T3 construct: host or cells: mouse myeloma NSO
# Protocol: as §2
# T3 sequence (P51685 whole entry): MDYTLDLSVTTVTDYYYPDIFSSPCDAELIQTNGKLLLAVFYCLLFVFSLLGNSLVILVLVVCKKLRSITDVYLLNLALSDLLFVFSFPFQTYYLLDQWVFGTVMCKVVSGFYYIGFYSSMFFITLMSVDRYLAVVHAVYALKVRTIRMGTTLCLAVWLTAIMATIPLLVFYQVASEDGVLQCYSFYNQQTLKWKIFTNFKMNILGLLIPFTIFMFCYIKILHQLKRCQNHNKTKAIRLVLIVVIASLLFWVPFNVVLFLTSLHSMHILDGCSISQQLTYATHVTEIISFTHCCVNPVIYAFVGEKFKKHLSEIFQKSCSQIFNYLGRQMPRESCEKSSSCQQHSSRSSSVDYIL
Binding of radiolabeled chemokine in homologous competition with cold chemokine (CCR10 [1]),Affinity of binding to CCR10 (CCR10 [2]),Binding to Stalkokine form (CCR7),Binding to Stalkokine form (CCR8),Molecule
Nearly identical results,high affinity,–,–,"TECK: thymus expressed chemokine, soluble recombinant (protein) QGVFEDCCLAYHYPIGWAVLRRAWTYRIQEVSGSCNLPAAIFYLPKRHRKVCGNPKSREVQRAMKLLDARNKVFAKLHHNTQTFQAGPHAVKKLSSGNSKLSSSKFSNPISSSKRNVSLLISANSGL"
–,high affinity,no,–,"SLC: secondary lymphoid-tissue chemokine, soluble recombinant (protein, UniProt O00585 24-134, looked up) C-C motif chemokine 21: SDGGAQDCCLKYSQRKIPAKVVRSYRKQEPSLGCSIPAILFLPRKRSQAELCADPKELWVQQLMQHLDKTPSPQKPAQGCRKDRGASKTGKKGKGSKGCKRTERSQTPKGP"
–,–,–,"yes, yes","I309: stalkokine form of chemokine I309 (protein, left off: small tags and cut ends) KSMQVPFSRCCFSFAEQEIPLRAILCYRNTSSICSNEGLIFKLKRGKEACALDTVGWVQRHRKMLRHCPSKRKEFGGTFEKQIGEVKPRTTPAAGGMDESVVLEPEATGESSSLEPTPSSQEAQRALGTSPELPTGVTGSSGTRLPPTPKAQDGGPVGTELFRVPPVSTAATWQSSAPHQPGPSLWAEAKTSEAPSTQDPSTQASTASSPAPEENAPSEGQRVWGQGQSPRPENSLEREEMGPVPAHTDAFQDWGPGSMAHVSVVPVSSEGTPSREPVASGSWTPKAEEPIHATMDPQRLGVLITPVPDAQA"
